B1: dBr_Jan07_20877 (dsDNA)
DNA 1: TAAACCTAGAGACGCTAAGAACACTTACAGGCGAGCGTCTGTGTTCCGTTGTCCGTGCTG
DNA 2: CAGCACGGACAACGGAACACAGACGCTCGCCTGTAAGTGTTCTTAGCGTCTCTAGGTTTA
B2: dBr_Jan07_19752 (dsDNA)
DNA 1: TAAGCTTCGGTTCTCGTTCGGTACAACACGTGTATGGTCTGTGTTCCGTTGTCCGTGCTG
DNA 2: CAGCACGGACAACGGAACACAGACCATACACGTGTTGTACCGAACGAGAACCGAAGCTTA
B3: dBr_Jan07_11943 (dsDNA)
DNA 1: GGGCCGGTAAACGGACTGGTACGATGAAGCGCACGTGTCTGTGTTCCGTTGTCCGTGCTG
DNA 2: CAGCACGGACAACGGAACACAGACACGTGCGCTTCATCGTACCAGTCCGTTTACCGGCCC
B4: dBr_Jan07_01937 (dsDNA)
DNA 1: AGCTTTTTATCTCTGTGGGCGGGTAACAACCATGTGGTCTGTGTTCCGTTGTCCGTGCTG
DNA 2: CAGCACGGACAACGGAACACAGACCACATGGTTGTTACCCGCCCACAGAGATAAAAAGCT
B5: dBr_Jan07_07207 (dsDNA)
DNA 1: TCAGCCGCGTGGCACAATGTCCACAGGTAGGGTACAGTCTGTGTTCCGTTGTCCGTGCTG
DNA 2: CAGCACGGACAACGGAACACAGACTGTACCCTACCTGTGGACATTGTGCCACGCGGCTGA
B6: dBr_Jan07_10036 (dsDNA)
DNA 1: CCGCGGACAGGTTCAGCCATCCGACTGCTACGCACAGTCTGTGTTCCGTTGTCCGTGCTG
DNA 2: CAGCACGGACAACGGAACACAGACTGTGCGTAGCAGTCGGATGGCTGAACCTGTCCGCGG
B7: dBr_Jan07_27092 (dsDNA)
DNA 1: GTTTAGAGGCTGTTTGCTGTCGCCCTACAACCACGTGTCTGTGTTCCGTTGTCCGTGCTG
DNA 2: CAGCACGGACAACGGAACACAGACACGTGGTTGTAGGGCGACAGCAAACAGCCTCTAAAC
B8: dBr_Jan07_30895 (dsDNA)
DNA 1: TTGCCGTATAGTGATCCTAAGCGTCCACGTGGATGAGTCTGTGTTCCGTTGTCCGTGCTG
DNA 2: CAGCACGGACAACGGAACACAGACTCATCCACGTGGACGCTTAGGATCACTATACGGCAA
B9: dBr_Jan07_07176 (dsDNA)
DNA 1: TATGCGTTGGCCATCTTAATTCCACGTGGTGTCCTCGTCTGTGTTCCGTTGTCCGTGCTG
DNA 2: CAGCACGGACAACGGAACACAGACGAGGACACCACGTGGAATTAAGATGGCCAACGCATA
B10: dBr_Jan07_16171 (dsDNA)
DNA 1: ATCACGTGCATCTACTAGACACCCCATGCGTTAGGCGTCTGTGTTCCGTTGTCCGTGCTG
DNA 2: CAGCACGGACAACGGAACACAGACGCCTAACGCATGGGGTGTCTAGTAGATGCACGTGAT
B11: dBr_Jan07_39019 (dsDNA)
DNA 1: TCCTTCCCGACGGACAGTGCAATCTGATTATCACGTGTCTGTGTTCCGTTGTCCGTGCTG
DNA 2: CAGCACGGACAACGGAACACAGACACGTGATAATCAGATTGCACTGTCCGTCGGGAAGGA
B12: dBr_Jan07_25737 (dsDNA)
DNA 1: TGCACGACCAGTCATCCACGTGTTTGCCCGCAAAGTGTCTGTGTTCCGTTGTCCGTGCTG
DNA 2: CAGCACGGACAACGGAACACAGACACTTTGCGGGCAAACACGTGGATGACTGGTCGTGCA
B13: dBr_Jan07_03962 (dsDNA)
DNA 1: TGGCCGCCACGTGGCGCTCTGCGGTCACATGTTGGGGTCTGTGTTCCGTTGTCCGTGCTG
DNA 2: CAGCACGGACAACGGAACACAGACCCCAACATGTGACCGCAGAGCGCCACGTGGCGGCCA
B14: dBr_Jan07_09790 (dsDNA)
DNA 1: ATTCTAATGATTGCGTATACACGTGTCTTGAATTGGGTCTGTGTTCCGTTGTCCGTGCTG
DNA 2: CAGCACGGACAACGGAACACAGACCCAATTCAAGACACGTGTATACGCAATCATTAGAAT
B15: dBr_Jan07_00940 (dsDNA)
DNA 1: GGATATGGCCCTCCCTACGAACACGTGGAGTTAGGCGTCTGTGTTCCGTTGTCCGTGCTG
DNA 2: CAGCACGGACAACGGAACACAGACGCCTAACTCCACGTGTTCGTAGGGAGGGCCATATCC
B16: dBr_Jan07_16204 (dsDNA)
DNA 1: ATGAACCAATCGGTCGATTAGAGATAGAGAAAGAAGGTCTGTGTTCCGTTGTCCGTGCTG
DNA 2: CAGCACGGACAACGGAACACAGACCTTCTTTCTCTATCTCTAATCGACCGATTGGTTCAT
B17: dBr_Jan07_09107 (dsDNA)
DNA 1: TCTCCTGTGACAATTACGCCCCCCCCAGGCGCCTACGTCTGTGTTCCGTTGTCCGTGCTG
DNA 2: CAGCACGGACAACGGAACACAGACGTAGGCGCCTGGGGGGGGCGTAATTGTCACAGGAGA
B18: dBr_Jan07_12609 (dsDNA)
DNA 1: TGATAAGGATCTACTTCAAGAGCACGTGTCATCTATGTCTGTGTTCCGTTGTCCGTGCTG
DNA 2: CAGCACGGACAACGGAACACAGACATAGATGACACGTGCTCTTGAAGTAGATCCTTATCA
B19: dBr_Jan07_02776 (dsDNA)
DNA 1: GACGAAGTAAGGCTAGCTTGTCGCTAAAAAGACGCAGTCTGTGTTCCGTTGTCCGTGCTG
DNA 2: CAGCACGGACAACGGAACACAGACTGCGTCTTTTTAGCGACAAGCTAGCCTTACTTCGTC
B20: dBr_Jan07_26545 (dsDNA)
DNA 1: ACTGCGCCGGAGAGTTCAACGAACTACTACGTCGAAGTCTGTGTTCCGTTGTCCGTGCTG
DNA 2: CAGCACGGACAACGGAACACAGACTTCGACGTAGTAGTTCGTTGAACTCTCCGGCGCAGT
B21: dBr_Jan07_10189 (dsDNA)
DNA 1: GTTTGTGAGGTTCCTGACTCTGAGCGGACCGGTAGAGTCTGTGTTCCGTTGTCCGTGCTG
DNA 2: CAGCACGGACAACGGAACACAGACTCTACCGGTCCGCTCAGAGTCAGGAACCTCACAAAC
B22: dBr_Jan07_34584 (dsDNA)
DNA 1: ATTGCCGCACCTGATGCATCGCCACGTGTTATAATCGTCTGTGTTCCGTTGTCCGTGCTG
DNA 2: CAGCACGGACAACGGAACACAGACGATTATAACACGTGGCGATGCATCAGGTGCGGCAAT
B23: dBr_Jan07_01315 (dsDNA)
DNA 1: ATTACCTACTCAACTTACTAGGAAACACGTGCACATGTCTGTGTTCCGTTGTCCGTGCTG
DNA 2: CAGCACGGACAACGGAACACAGACATGTGCACGTGTTTCCTAGTAAGTTGAGTAGGTAAT
B24: dBr_Jan07_04478 (dsDNA)
DNA 1: AGTTGCGCCACTATGCCAAAACACCATTGAGCACGTGTCTGTGTTCCGTTGTCCGTGCTG
DNA 2: CAGCACGGACAACGGAACACAGACACGTGCTCAATGGTGTTTTGGCATAGTGGCGCAACT
B25: dBr_Jan07_22161 (dsDNA)
DNA 1: GAATTTACCCGCGCTGTTGGTCACGTGTGTGGTTTTGTCTGTGTTCCGTTGTCCGTGCTG
DNA 2: CAGCACGGACAACGGAACACAGACAAAACCACACACGTGACCAACAGCGCGGGTAAATTC
B26: dBr_Jan07_36814 (dsDNA)
DNA 1: GCGCAAGCCATGACCCGGTACGATTTAGAAATGGCGGTCTGTGTTCCGTTGTCCGTGCTG
DNA 2: CAGCACGGACAACGGAACACAGACCGCCATTTCTAAATCGTACCGGGTCATGGCTTGCGC
B27: dBr_Jan07_16923 (dsDNA)
DNA 1: TGGGTCATGCTCGAACAGCGTCACTAGGTAGCACGTGTCTGTGTTCCGTTGTCCGTGCTG
DNA 2: CAGCACGGACAACGGAACACAGACACGTGCTACCTAGTGACGCTGTTCGAGCATGACCCA
B28: dBr_Jan07_35732 (dsDNA)
DNA 1: TAGTTGTATCTTGATCGCCGATTCCCCATGCCACGTGTCTGTGTTCCGTTGTCCGTGCTG
DNA 2: CAGCACGGACAACGGAACACAGACACGTGGCATGGGGAATCGGCGATCAAGATACAACTA
B29: dBr_Jan07_03145 (dsDNA)
DNA 1: CCGATTTAGGAGCGGGTAAATACAGGCAGCTCTCTGGTCTGTGTTCCGTTGTCCGTGCTG
DNA 2: CAGCACGGACAACGGAACACAGACCAGAGAGCTGCCTGTATTTACCCGCTCCTAAATCGG
B30: dBr_Jan07_03225 (dsDNA)
DNA 1: TTCTATCCCTAATCTCCGCGTGGCTACCCCTTCAAGGTCTGTGTTCCGTTGTCCGTGCTG
DNA 2: CAGCACGGACAACGGAACACAGACCTTGAAGGGGTAGCCACGCGGAGATTAGGGATAGAA
B31: dBr_Jan07_32293 (dsDNA)
DNA 1: TCGCGGCTCGAAGCACCCTCCCCAGGGGCATCAGCAGTCTGTGTTCCGTTGTCCGTGCTG
DNA 2: CAGCACGGACAACGGAACACAGACTGCTGATGCCCCTGGGGAGGGTGCTTCGAGCCGCGA
B32: dBr_Jan07_39645 (dsDNA)
DNA 1: AGATCAAAACGTAAGACGACAGGCGAACTTCAGTAAGTCTGTGTTCCGTTGTCCGTGCTG
DNA 2: CAGCACGGACAACGGAACACAGACTTACTGAAGTTCGCCTGTCGTCTTACGTTTTGATCT
B33: dBr_Jan07_16409 (dsDNA)
DNA 1: CGTTACTGGTGCACGTGTTCTCCTCTCCACCTTCAGGTCTGTGTTCCGTTGTCCGTGCTG
DNA 2: CAGCACGGACAACGGAACACAGACCTGAAGGTGGAGAGGAGAACACGTGCACCAGTAACG

Target: WT Max (Homo sapiens, UniProt P61244-2 13-93, M65Nle, norleucine written as M; other non-natural residues written as X)
Experiment: PBM; 50-200 nM protein; PBS, 2% milk, BSA, salmon testes DNA, 0.02% Triton X-100
Conditions: chain copies: 2; label: surface-attached array probe

Sequence of WT Max (P61244 other isoform, or with tags, fused parts or gaps M65Nle): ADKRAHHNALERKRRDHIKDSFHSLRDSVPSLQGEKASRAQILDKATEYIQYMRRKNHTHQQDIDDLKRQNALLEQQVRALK

Row | Binder | binding signal
1 | B1 | -1.02 robust z of log adjusted intensity (ours), mean of two arrays
2 | B2 | 4.26 robust z of log adjusted intensity (ours), mean of two arrays
3 | B3 | 4.72 robust z of log adjusted intensity (ours), mean of two arrays
4 | B4 | 4.33 robust z of log adjusted intensity (ours), mean of two arrays
5 | B5 | 5.41 robust z of log adjusted intensity (ours), mean of two arrays
6 | B6 | -0.76 robust z of log adjusted intensity (ours), mean of two arrays
7 | B7 | 4.94 robust z of log adjusted intensity (ours), mean of two arrays
8 | B8 | 4.78 robust z of log adjusted intensity (ours), mean of two arrays
9 | B9 | 4.6 robust z of log adjusted intensity (ours), mean of two arrays
10 | B10 | 6.35 robust z of log adjusted intensity (ours), mean of two arrays
11 | B11 | 4.91 robust z of log adjusted intensity (ours), mean of two arrays
12 | B12 | 4.58 robust z of log adjusted intensity (ours), mean of two arrays
13 | B13 | 4.57 robust z of log adjusted intensity (ours), mean of two arrays
14 | B14 | 4.37 robust z of log adjusted intensity (ours), mean of two arrays
15 | B15 | 4.33 robust z of log adjusted intensity (ours), mean of two arrays
16 | B16 | -1.46 robust z of log adjusted intensity (ours), mean of two arrays
17 | B17 | -1.31 robust z of log adjusted intensity (ours), mean of two arrays

Row | Binder | binding signal
18 | B18 | 4.35 robust z of log adjusted intensity (ours), mean of two arrays
19 | B19 | -1.15 robust z of log adjusted intensity (ours), mean of two arrays
20 | B20 | -0.92 robust z of log adjusted intensity (ours), mean of two arrays
21 | B21 | -0.8 robust z of log adjusted intensity (ours), mean of two arrays
22 | B22 | 6.19 robust z of log adjusted intensity (ours), mean of two arrays
23 | B23 | 5.18 robust z of log adjusted intensity (ours), mean of two arrays
24 | B24 | 4.55 robust z of log adjusted intensity (ours), mean of two arrays
25 | B25 | 5.72 robust z of log adjusted intensity (ours), mean of two arrays
26 | B26 | -1.34 robust z of log adjusted intensity (ours), mean of two arrays
27 | B27 | 4.47 robust z of log adjusted intensity (ours), mean of two arrays
28 | B28 | 4.37 robust z of log adjusted intensity (ours), mean of two arrays
29 | B29 | -1.12 robust z of log adjusted intensity (ours), mean of two arrays
30 | B30 | 4.25 robust z of log adjusted intensity (ours), mean of two arrays
31 | B31 | -0.93 robust z of log adjusted intensity (ours), mean of two arrays
32 | B32 | -1.15 robust z of log adjusted intensity (ours), mean of two arrays
33 | B33 | 4.95 robust z of log adjusted intensity (ours), mean of two arrays
